# Results as given in US20120094899A1 (Takeda / Millennium, published 2012).
# Non-standard residues stand in square brackets, D forms with d. No end group written: not given here. *: point of attachment. Acetyl(2-(piperazin-1-yl)) = O=C(CN1CCNCC1)*; PEG 20 kDa = methoxypolyethylene glycol 20k; PEG 30 kDa = methoxypolyethylene glycol 30k; NMeY = CN[C@@H](Cc1ccc(O)cc1)C(=O)O; NMeR = CN[C@@H](CCCNC(=N)N)C(=O)O; NMeL = CN[C@@H](CC(C)C)C(=O)O; NMeA = CN[C@@H](C)C(=O)O; βAla = NCCC(=O)O
# T1: Human FM3 (human, UniProt Q9HB89 1-426)
# T1 construct: whole, on cells; Assayed as the membrane fraction of FM3-expressing CHO cells (1.2 mg/mL protein); also called NMUR1; FM3 receptor
# T1 sequence (looked up): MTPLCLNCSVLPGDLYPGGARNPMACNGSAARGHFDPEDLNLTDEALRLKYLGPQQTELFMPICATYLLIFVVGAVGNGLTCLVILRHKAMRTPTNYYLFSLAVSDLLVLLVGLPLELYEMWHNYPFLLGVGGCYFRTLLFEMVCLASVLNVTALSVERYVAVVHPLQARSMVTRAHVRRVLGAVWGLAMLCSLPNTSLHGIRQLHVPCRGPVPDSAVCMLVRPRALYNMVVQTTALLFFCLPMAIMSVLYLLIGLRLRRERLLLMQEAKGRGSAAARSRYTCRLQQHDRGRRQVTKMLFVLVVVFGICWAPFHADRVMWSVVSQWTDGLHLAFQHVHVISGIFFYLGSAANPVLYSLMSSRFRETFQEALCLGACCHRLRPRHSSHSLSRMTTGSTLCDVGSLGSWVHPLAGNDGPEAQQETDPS
# Tests used:
# Human FM3 = target: T1, Human FM3; test: displacement of 125I-NMU8 from human FM3 CHO membrane fraction; IC50 relative to NMU-8;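 note: binding reaction run for 70 min at 25 °C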
# Method: (§1) 15 mL of homogenized buffer (10 mM NaHCO₃ (pH 7.4), 5 mM EDTA, protease inhibitor=0.5 mM PMSF, 10 μg/mL Pepstatin A, 20 μg/mL Leupeptin, and 4 μg/mL E-64) was added to the obtained cell pellets, the cellular membrane was disrupted using a polytron homogenizer (Kinematica GmbH), centrifugation was conducted for 10 minutes at 1,000 g at 4° C., and the supernatant was collected. This process was further repeated twice, and ultracentrifugation was conducted for 60 minutes at 30,000 rpm at 4° C. Thereafter, 8 mL of homogenized buffer was added to the pellets and suspended homogeneously to prepare a membrane fraction. The protein concentration of the FM3-expressing CHO cellular membrane fraction was 1.2 mg/mL, and the protein concentration of the TGR1-expressing CHO cellular membrane fraction was 1.1 mg/mL.
# (§2) Specifically, each of the NMU derivatives and PEG conjugates was dissolved in DMSO so as to prepare 2 μL of each dilution series of the NMU derivatives and PEG conjugates. […] The resulting product was thoroughly mixed, and then a reaction was carried out at 25° C. for 70 minutes.
# human TGR1 = target: T2, human TGR1 (human, UniProt Q9GZQ4 1-415); test: displacement of 125I-NMU8 from human TGR1 CHO membrane fraction; IC50 relative to NMU-8;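 note: competitive binding on TGR1-expressing CHO cell membranes, with compounds tested as DMSO dilution series and incubated for 70 min at 25 °C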
# T2 construct: whole, on cells; Assayed as the membrane fraction of TGR1-expressing CHO cells (1.1 mg/mL protein); also called NMUR2; TGR1 receptor
# T2 sequence (Q9GZQ4 whole entry): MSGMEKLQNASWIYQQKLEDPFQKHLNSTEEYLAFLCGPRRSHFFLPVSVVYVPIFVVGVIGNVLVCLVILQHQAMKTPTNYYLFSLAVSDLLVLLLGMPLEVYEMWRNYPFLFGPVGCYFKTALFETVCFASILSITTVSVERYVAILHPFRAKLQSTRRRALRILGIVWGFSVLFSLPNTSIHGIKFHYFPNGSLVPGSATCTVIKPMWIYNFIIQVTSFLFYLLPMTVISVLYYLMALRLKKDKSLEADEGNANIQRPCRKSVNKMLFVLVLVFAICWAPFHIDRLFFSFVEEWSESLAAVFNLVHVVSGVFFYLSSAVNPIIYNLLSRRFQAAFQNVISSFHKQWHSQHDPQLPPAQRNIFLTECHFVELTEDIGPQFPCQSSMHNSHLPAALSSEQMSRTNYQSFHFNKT
# Method: as §1, §2
Binder,IC50 ratio (Human FM3),IC50 ratio (human TGR1)
"[βAla]YFLF[NMeR]PRN-NH2 (N-terminus assumed; SMILES CC(C)C[C@H](NC(=O)[C@H](Cc1ccccc1)NC(=O)[C@H](Cc1ccc(O)cc1)NC(=O)CCN)C(=O)N[C@@H](Cc1ccccc1)C(=O)N(C)[C@@H](CCCNC(=N)N)C(=O)N1CCC[C@H]1C(=O)N[C@@H](CCCNC(=N)N)C(=O)N[C@@H](CC(N)=O)C(N)=O) [β-Ala0,NMeArg5-NMU-8 (Compound 13)]",0.46 ratio to NMU-8 (=1),–
"[βAla]YWLFR[NMeA]RN-NH2 (N-terminus assumed; SMILES CC(C)C[C@H](NC(=O)[C@H](Cc1c[nH]c2ccccc12)NC(=O)[C@H](Cc1ccc(O)cc1)NC(=O)CCN)C(=O)N[C@@H](Cc1ccccc1)C(=O)N[C@@H](CCCNC(=N)N)C(=O)N(C)[C@@H](C)C(=O)N[C@@H](CCCNC(=N)N)C(=O)N[C@@H](CC(N)=O)C(N)=O) [β-Ala0,Trp2,NMeAla6-NMU-8 (Compound 17)]",92 ratio to NMU-8 (=1),1.9 ratio to NMU-8 (=1)
"{Acetyl(2-(piperazin-1-yl))}-YELFRARN-NH2 (SMILES CC(C)C[C@H](NC(=O)[C@H](CCC(=O)O)NC(=O)[C@H](Cc1ccc(O)cc1)NC(=O)CN1CCNCC1)C(=O)N[C@@H](Cc1ccccc1)C(=O)N[C@@H](CCCNC(=N)N)C(=O)N[C@@H](C)C(=O)N[C@@H](CCCNC(=N)N)C(=O)N[C@@H](CC(N)=O)C(N)=O, also called 2-(piperazin-1-yl)acetyl-[Glu2,Ala6]-NMU8) [NpipAc0,Glu2,Ala6-NMU-8 (Compound 19)]",24000 ratio to NMU-8 (=1),25 ratio to NMU-8 (=1)
"[βAla]YELFR[NMeA]RN-NH2 (N-terminus assumed; SMILES CC(C)C[C@H](NC(=O)[C@H](CCC(=O)O)NC(=O)[C@H](Cc1ccc(O)cc1)NC(=O)CCN)C(=O)N[C@@H](Cc1ccccc1)C(=O)N[C@@H](CCCNC(=N)N)C(=O)N(C)[C@@H](C)C(=O)N[C@@H](CCCNC(=N)N)C(=O)N[C@@H](CC(N)=O)C(N)=O) [β-Ala0,Glu2,NMeAla6-NMU-8 (Compound 18)]",26000 ratio to NMU-8 (=1),31 ratio to NMU-8 (=1)
"{PEG 20 kDa-βAla}-YELFR[NMeA]RN-NH2 [PEG20k-NH-β-Ala0,Glu2,NMeAla6-NMU-8 (Compound R)]",–,540 ratio to NMU-8 (=1)
"{Acetyl(2-(piperazin-1-yl))}-YELFR[NMeA]RN-NH2 (SMILES CC(C)C[C@H](NC(=O)[C@H](CCC(=O)O)NC(=O)[C@H](Cc1ccc(O)cc1)NC(=O)CN1CCNCC1)C(=O)N[C@@H](Cc1ccccc1)C(=O)N[C@@H](CCCNC(=N)N)C(=O)N(C)[C@@H](C)C(=O)N[C@@H](CCCNC(=N)N)C(=O)N[C@@H](CC(N)=O)C(N)=O, also called 2-(piperazin-1-yl)acetyl-[Glu2,NMeAla6]-NMU8) [NpipAc0,Glu2,NMeAla6-NMU-8 (Compound 21)]",6500 ratio to NMU-8 (=1),5.5 ratio to NMU-8 (=1)
"[βAla][NMeY]F[NMeL]F[NMeR]PRN-NH2 (N-terminus assumed; SMILES CC(C)C[C@@H](C(=O)N[C@@H](Cc1ccccc1)C(=O)N(C)[C@@H](CCCNC(=N)N)C(=O)N1CCC[C@H]1C(=O)N[C@@H](CCCNC(=N)N)C(=O)N[C@@H](CC(N)=O)C(N)=O)N(C)C(=O)[C@H](Cc1ccccc1)NC(=O)[C@H](Cc1ccc(O)cc1)N(C)C(=O)CCN, also called β-Ala0,NMeTry1,NMeLeu3,NMEArg5-NMU-8) [β-Ala0,NMeTyr1,NMeLeu3,NMeArg5-NMU-8 (Compound 16)]",–,27 ratio to NMU-8 (=1)
{PEG 20 kDa-Acetyl(2-(piperazin-1-yl))}-YFRFRPRN-NH2 [PEG20k-NpipAc-Arg3-NMU-8 (Compound I)],1.6 ratio to NMU-8 (=1),2.1 ratio to NMU-8 (=1)
"{PEG 30 kDa-βAla}-YFLFRPRD-NH2 [PEG30k-NH-β-Ala0,Asp8-NMU-8 (Compound L)]",150 ratio to NMU-8 (=1),34 ratio to NMU-8 (=1)
"{PEG 30 kDa-βAla}-RFLFRPRN-NH2 (also called PEG-NH-β-Ala0,Arg1-NMU-8) [PEG30k-NH-β-Ala0,Arg1-NMU-8 (Compound G)]",1.5 ratio to NMU-8 (=1),8.5 ratio to NMU-8 (=1)
"[βAla]RFLFRPRN-NH2 (N-terminus assumed; SMILES CC(C)C[C@H](NC(=O)[C@H](Cc1ccccc1)NC(=O)[C@H](CCCNC(=N)N)NC(=O)CCN)C(=O)N[C@@H](Cc1ccccc1)C(=O)N[C@@H](CCCNC(=N)N)C(=O)N1CCC[C@H]1C(=O)N[C@@H](CCCNC(=N)N)C(=O)N[C@@H](CC(N)=O)C(N)=O) [β-Ala0,Arg1-NMU-8 (Compound 7)]",0.42 ratio to NMU-8 (=1),3.7 ratio to NMU-8 (=1)
{PEG 30 kDa-Acetyl(2-(piperazin-1-yl))}-YFRFRPRN-NH2 [PEG30k-NpipAc-Arg3-NMU-8 (Compound J)],2.2 ratio to NMU-8 (=1),2.6 ratio to NMU-8 (=1)
"{PEG 30 kDa-βAla}-YYLFRPRN-NH2 (also called PEG-NH-β-Ala0,Tyr2-NMU-8) [PEG30k-NH-β-Ala0,Tyr2-NMU-8 (Compound E)]",8.1 ratio to NMU-8 (=1),1.7 ratio to NMU-8 (=1)
"{PEG 30 kDa-βAla}-YFRFRPRN-NH2 (also called PEG-NH-β-Ala0,Arg3-NMU-8) [PEG30k-NH-β-Ala0,Arg3-NMU-8 (Compound C)]",1.7 ratio to NMU-8 (=1),2.6 ratio to NMU-8 (=1)
YFRFRPRN-NH2 (no linker) [Arg3-NMU-8 (Compound 9)],0.62 ratio to NMU-8 (=1),1.9 ratio to NMU-8 (=1)
"{PEG 30 kDa-βAla}-PFLFRPRN-NH2 (also called PEG-NH-β-Ala0,Pro1-NMU-8) [PEG30k-NH-β-Ala0,Pro1-NMU-8 (Compound H)]",9.4 ratio to NMU-8 (=1),21 ratio to NMU-8 (=1)
"{PEG 30 kDa-βAla}-YFQFRPRN-NH2 (also called PEG-NH-β-Ala0,Gln3-NMU-8) [PEG30k-NH-β-Ala0,Gln3-NMU-8 (Compound B)]",1.8 ratio to NMU-8 (=1),7.3 ratio to NMU-8 (=1)
"{PEG 20 kDa-Acetyl(2-(piperazin-1-yl))}-YWLFRARN-NH2 (also called PEG20k-NpipAc-Trp2,Ala6-NMU8) [PEG20k-NpipAc0,Trp2,Ala6-NMU-8 (Compound T)]",–,55 ratio to NMU-8 (=1)

# The next lines start with the values.
IC50 ratio (Human FM3),IC50 ratio (human TGR1),Binder
–,750 ratio to NMU-8 (=1),"{PEG 20 kDa-Acetyl(2-(piperazin-1-yl))}-YELFRARN-NH2 (also called PEG20k-NpipAc-Glu2,Ala6-NMU8) [PEG20k-NpipAc0,Glu2,Ala6-NMU-8 (Compound S)]"
–,360 ratio to NMU-8 (=1),"{PEG 20 kDa-Acetyl(2-(piperazin-1-yl))}-YELFR[NMeA]RN-NH2 (also called PEG20k-NpipAc-Glu2,NMeAla6-NMU8) [PEG20k-NpipAc0,Glu2,NMeAla6-NMU-8 (Compound U)]"
0.27 ratio to NMU-8 (=1),0.66 ratio to NMU-8 (=1),"{Acetyl(2-(piperazin-1-yl))}-YFRFRPRN-NH2 (SMILES N=C(N)NCCC[C@H](NC(=O)[C@H](Cc1ccccc1)NC(=O)[C@H](Cc1ccc(O)cc1)NC(=O)CN1CCNCC1)C(=O)N[C@@H](Cc1ccccc1)C(=O)N[C@@H](CCCNC(=N)N)C(=O)N1CCC[C@H]1C(=O)N[C@@H](CCCNC(=N)N)C(=O)N[C@@H](CC(N)=O)C(N)=O, also called NpipAc-Arg3-NMU-8) [2-(piperazin-1-yl)acetyl-Arg3-NMU8 (Compound 10)]"
0.31 ratio to NMU-8 (=1),3.9 ratio to NMU-8 (=1),"[βAla]YFQFRPRN-NH2 (N-terminus assumed; SMILES N=C(N)NCCC[C@H](NC(=O)[C@@H]1CCCN1C(=O)[C@H](CCCNC(=N)N)NC(=O)[C@H](Cc1ccccc1)NC(=O)[C@H](CCC(N)=O)NC(=O)[C@H](Cc1ccccc1)NC(=O)[C@H](Cc1ccc(O)cc1)NC(=O)CCN)C(=O)N[C@@H](CC(N)=O)C(N)=O) [β-Ala0,Gln3-NMU-8 (Compound 2)]"
15 ratio to NMU-8 (=1),3.4 ratio to NMU-8 (=1),"[βAla]YFLFQPRN-NH2 (N-terminus assumed; SMILES CC(C)C[C@H](NC(=O)[C@H](Cc1ccccc1)NC(=O)[C@H](Cc1ccc(O)cc1)NC(=O)CCN)C(=O)N[C@@H](Cc1ccccc1)C(=O)N[C@@H](CCC(N)=O)C(=O)N1CCC[C@H]1C(=O)N[C@@H](CCCNC(=N)N)C(=O)N[C@@H](CC(N)=O)C(N)=O) [β-Ala0,Gln5-NMU-8 (Compound 1)]"
160 ratio to NMU-8 (=1),9.6 ratio to NMU-8 (=1),"{PEG 30 kDa-βAla}-YFLFQPRN-NH2 (also called PEG-NH-β-Ala0,Gln5-NMU-8) [PEG30k-NH-β-Ala0,Gln5-NMU-8 (Compound A)]"
5.3 ratio to NMU-8 (=1),2.2 ratio to NMU-8 (=1),"{PEG 30 kDa-βAla}-YFVFRPRN-NH2 (also called PEG-NH-β-Ala0,Val3-NMU-8) [PEG30k-NH-β-Ala0,Val3-NMU-8 (Compound D)]"
0.07 ratio to NMU-8 (=1),0.38 ratio to NMU-8 (=1),"[βAla]YFRFRPRN-NH2 (N-terminus assumed; SMILES N=C(N)NCCC[C@H](NC(=O)[C@H](Cc1ccccc1)NC(=O)[C@H](Cc1ccc(O)cc1)NC(=O)CCN)C(=O)N[C@@H](Cc1ccccc1)C(=O)N[C@@H](CCCNC(=N)N)C(=O)N1CCC[C@H]1C(=O)N[C@@H](CCCNC(=N)N)C(=O)N[C@@H](CC(N)=O)C(N)=O) [β-Ala0,Arg3-NMU-8 (Compound 3)]"
2.4 ratio to NMU-8 (=1),2 ratio to NMU-8 (=1),"[βAla]YFLFRPRD-NH2 (N-terminus assumed; SMILES CC(C)C[C@H](NC(=O)[C@H](Cc1ccccc1)NC(=O)[C@H](Cc1ccc(O)cc1)NC(=O)CCN)C(=O)N[C@@H](Cc1ccccc1)C(=O)N[C@@H](CCCNC(=N)N)C(=O)N1CCC[C@H]1C(=O)N[C@@H](CCCNC(=N)N)C(=O)N[C@@H](CC(=O)O)C(N)=O) [β-Ala0,Asp8-NMU-8 (Compound 12)]"
